From the nanobody polyreactivity screen of Harvey et al. (2022)

Assay: yeast display, Sf9 membrane polyspecificity reagent, FACS + sequencing; frameworks hold sequencing errors
Procedure, shortened: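 Synthetic nanobody libraries on Saccharomyces cerevisiae BJ5465 were galactose-induced for 36–48 hours, stained 1 hour at 4 °C with 10% biotinylated, detergent-solubilized Sf9 membrane reagent and enriched on streptavidin microbeads. FACS then separated cells into low and high (top ~1%) gates by anti-HA (expression) and streptavidin (reagent binding) fluorescence. Genes were colony-PCR amplified, MiSeq 2 × 250 sequenced and CDR-length filtered. A clone's polyreactivity label is that of its gate of origin.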

Row | Sequence | polyreactivity (PSR sort gate)
1 | QVQLVESGGGLVQAGGSLRLSCAASGRTSGNYAMGWYRQAPGKERELVAAIRYSGSSTFYADSVKGRFTISRDNAKNTVYLQMNSLKPEDTAVYYCARDIRRKGFRYDYWGQGTQVTVSS | high polyreactivity
2 | QVQLVESGGGLVQAGGSLRLSCAASGPTFKRYAMGWYRQAPGKERELVAAITGTGAITYYADSVKGRFTISRDNAKNTVYLQMNSLKPEDTAVYYCAALGYYRYKYQASSNGFDYWGQGTQVTVSS | high polyreactivity
3 | QVQLVESGGGLVQEGGSLRLSCAASGIIFDGNARGWYRQAPGKEKELVASITSDSSTNYADSVKGRFTISRDNAKNTVYLQMNSLKPEDTAVYYCAAAHWIAPRSDYWGQGTQVTLSS | low polyreactivity
4 | QVQLQESGRRPGSAGVSPRMSCAASGNIFWVAVMCRYRQAPGKERELVASIGFGCTTYYADSVKCRFTISRDNAKITVYLQMLSLKPFDTAVYYCAAPHYDWGELDYWGQGTQVPVSS | low polyreactivity
5 | QVQLVESGVGIVQAGGSLRLSSAPSGRTFTWYAMGRTRQAPGKERELVAAITNGGRTYADSVKGRFTISRDNAKNTVYLQMNSLKPEDTAVYYCAKVQYRGYLPHQRGRERDYDYWGQGTQVTVSS | low polyreactivity
6 | HVQLGESGGGLVQAGGSLRLSCAASGRISVFYTMGGYRQAPGKEREMVAVIRTSGGRTNYADSVKGRFTISRDNAKNTVYLQMNSLKPEDTAVYYCAARVVRYGYKYYYWGQGTQVTVSS | low polyreactivity
7 | QVQLVESGGGLVQAGGSLRLSCAASGSTFSRNAMGWSRQAPGKERELVAAITRSGGSTYYADSVKGRFSISRDNAKNTVYLQMNSLKPEDTAVYYCAVLSVRRSYNYWGQGTQVTVSS | high polyreactivity
8 | QVQLVESGGGLVQAGGSLRLSCAASGNTYSYNAMGWYRQAPGKEREFVASISRRGGRTNYADSVKGRFTISRDNAKYTVYLQMNSLKPEDTAVYYCAATTVPLGDYWGQGTQVTVST | high polyreactivity
9 | QVQLVESGGGLVQAGGSLRLSCAASGIIFYSSAMGWYRTAPGKERELVAAISWGGRTYYADSVKGRFTISRDNAKNTVYLQMNSLKPEDTAVYYCLNGRYWRRYDYWGQGTQVTVSS | high polyreactivity
10 | QVQLVESGGGLVQAGGSLRLSCAASGRIFRGYAMGWYRPAPGKERELVAAIDTDTGITYYADSVKGRFTISRVNAKNTVNLQMNSLKPEDTAVYYCAAETYYAVSTGYYFDYWGQGTQVTVSS | high polyreactivity
11 | QVQHVESGAGLVQAGGSLRLSCAASGLILVYYAMGWYRQAPGKEREFVAAITPGGSTKYADSVKGRFTISRDNAKNTVYLQMNSLKPEDTAVYYCNALSGPYWYSVYQYHQDDYWGQGTQVTVSS | low polyreactivity
12 | QVQLVESGGGLVQAGGSLRLSCAASGSIIRGNAMGWYSQAPGKERELVATITNGGSTNYADSVKGRFTISRDNAKNTVYFQMNSMKPEDTAVYYCNADHSYHIASTRHVDFWGQGTQVTVSS | low polyreactivity
13 | QVQLVESGGGLVQAGGSLRLSCAASGITFPYYAMGWYRQAPGKERELVAAISDGGSTNYADSVKGRFTISRDNAKNTVYLQMNSLKPEDTAVYYCAADYRYLFDYWGQGTQVTVSS | high polyreactivity
14 | QVQLVESGGGLVQAGGSLRLSCAASGSTSRGYAMAWYRQAPGKERELFASITLSGGNTYYADSVKGRFTISRDNAKNTVYLQMNSLKPEDTAVYYCAADDRGSSYGHFTVEYGYWGQGTQVTVSS | low polyreactivity
15 | QVQLVESGGGLVQAGGSLRLSCAASGRIFFTYAMGWYRQAPGKERELVASITGSGGSTYYADSVKGRFTISRDNAKNTVYLQMNSLQPEETAVYYCAAALFPRQLYRKFYYWGQGTQVTVSS | low polyreactivity
16 | QVQLVESGGGLVQAGGSLRLSCAASGRIFGVYAKGWYRQAPGKERELVAAISEGGGSTNYADSVKGRFTISRDNAKNTVYLQMNSLKPEETSVYYCAATYLTGVRRYYSWGQGSQVTVSS | low polyreactivity
17 | QVQLVESGGGLVQAGGSLRLICAASGRIFFTYAMGWYIQAPGKERQLVASITGSGGSTYYADSVKGRFTISRDNAKNTVYLQMNSLKPEDTAVYYCAAALFRRQLYRKFYYWGQGTQVTVSS | low polyreactivity
18 | QVQLVESGGGLVQAGGSLRLSCAASGSTFSDNAMGWYRQAPGKERELVATINASGGSTYYADSVKGRFTITRDNAKNTVYLQMNSLKPEDTAVYYCAADVYTRFWRVYRFDYWGQGTQVTVSS | low polyreactivity
19 | QVQLVESGGGLVQAGGRLRLSCAASGSTFWGYTMGWYRQAPGKERELVAAISTIGGSTYYADSVKGRFTISRDNAKNTVYLQMNSLKTEDTAVYYCAAYKGKHYKEGYWGQGTQVTVSS | low polyreactivity
20 | QVQLVESGGGLVQAGGSLRLSCAASGLIFSSNAMGWYRQAPGKERELVAAISSRGGRTYYADSVKGRFTISRDNAKNTVYLQMNSLKPEDTAVYYCAKYFTEVSRHTYDYWGQVTQVTVSS | high polyreactivity
21 | QVQLVESGGGLVQAGGSLRLSCAASGFIFGSYTMGWYRQAPGKERELVAAITTGGSTNYADSVKGRFTISRDNAKNTVYLQMNSLKPEDTAVYYCNAVWYYRGNPDIYGGLDYWGQGTQVTVSS | low polyreactivity
22 | QVQLVESGGGLVQAGGSLRVSCAASGSTFSAYAMGWYRPAPGKERELVAAISASGGSTYYADSVKGRFTISRDNAKNTVSLQMNSLKPEDTAVYYCNADRWKYELDYWGQGTQVTVSS | high polyreactivity

Row | Sequence | polyreactivity (PSR sort gate)
23 | QVQLVESGGGLVQAGGSLRLSCAASGRTFPTNAMGWYRQAPGKERELVARISTRGGSTYYADSVKGRFTISRDNAKNTVYLQMNSLKPEDTAVYYCAARYQGNYRTDKYDYWGQGTQVTVSS | high polyreactivity
24 | QVHHVESGGGLVQAGGSLRLSCAASGSTFYGYALGWYRQAPGKERELVAAITGSGDTTYYADSVKGRFTISRDNAKYTVYLQMNSLKPEDTAVYYCNRDYRSDLGYADQSWTDQYDHWGQGTQVTVSS | low polyreactivity
25 | QVQLHERGDGLVQAVGSLRLSCAASGYISGYYYMGWYRQATGKERELVAGIDALGSSTNYADCVKGRFTISRDNAKNTVYLQMNSLKPEDTAVYYCAARPDGDRLFSYWGQGTQVTVSS | low polyreactivity
26 | QVQLVESGGGLVQAGGSLRLSCAASGSTFNVYSMGWYRQAPGKERELVAAIDTGDGSTFYADSVKGRFTISRDNAKNTVYLQMNSLKPEDTAVYYCAAEFWAIVDGDYCGQGTQVTVSS | high polyreactivity
27 | QVQLVESGGGLVQAGGSLSIICAASGFTFRYYAMGWYREAPGKERELVAAISKSGTSTYYADSVKGRFTISRDNAKNTVYLQMNSLKPEDTAVYYCAARRGRRYYYWGQGTQVTVSS | high polyreactivity
28 | QVQLVESGGGLVHAGGSLRLSCAASGFIYPGNAKGWYIQAPGKERELVAAISNSGSRTYYADSVKGRFTISRDHAMNTVYLQMNSLKPEDTAVYYCNADVDNRGWPYDYWGQGTQVNVSS | low polyreactivity
29 | QVQLVESGGGLVQAGGSLRLSCAASGSTFQSYTMGWYRQAPGKERELVAGISRSGGSTYYADSVKGRFTISRDNAKNTVYLQMNSLKPEDTAVYYCAAAFYGRWGGFDYWGQGTQVTVSS | high polyreactivity
30 | QVQLVESGGGLVQAGGSLRLSCAASGRNIWGYTMGWYRQAPGKERDLVAAIRFTSGSTYYADSVKGRFTISRDNAKNSVYLQMNSLKPEDTAVYYCATPYVQTGSGYTGVYWGQGTQVTVSS | high polyreactivity
31 | QVQLVESVGGLVQEGGSLRLISAASGSIFGSNAMGWYRQAPGKEREMFAAISKSGGSTYYADSVKGRFTISRDNAKNTVYLQMNSLKPEDTAVFYCNPRWWVVTFYGRYEGDYWGQGTQVTVSS | low polyreactivity
32 | QVQLVESGGGLVQAGGSLRLSCAASGRIFTYMGWYRQAPGKERELVAGISWRGTSTYYADSVKGRFTISRDNAKNTVYLQMNSLKPEDTAVYYCAAPWAYHVRGDYWGQGTQVTVSS | low polyreactivity
33 | QVQLVESGGGLVQAGGSLRLSCAASGIILYRNGMGWYRQAPGKERELVAAISWSTGSTYYADSVKGRFTISRDNAKYTVYLQMNSLKPEDTAVYYCATDYVGYSFGMYYWGQGTQVTVSS | low polyreactivity
34 | QVQLVESGGGLVQAGGSLRLSCAASGFIFTNVMGWYRQAPGKERELVAAISGRGTSTYYADSVKGRFTISRDNAKNTVYLQMNSLKPEETAVYYCAAASYQSRYWNYYWGQGTQVTVSS | high polyreactivity
35 | QEQLQECGGGLVQAGGSLRLSCAASGNVFDADIMGWYRQAPGKERELVASVTDGGSTNYADSVKGRFTFSRDIAKNTVYLQMNSLKPEDTAVYYCAAIVYPDILTYFDYDYDYFYWGQGTQVTVGS | low polyreactivity
36 | QVQLVESGGGLVQAGGSLRLSCAASGFIFEHYAMGWYRQAPGKERELVAAISRTGGRTYYADSVKGRFTISRDNAKNTVYLQMNSLKPEDTAVYYCAATAYSRLGVSSDYWGQGTQVTVSS | high polyreactivity
37 | QVQLVESGGGLVQAGGSLRLSCAASGSILFGYGMGWYRQAPGKERELVATITTSGGTYYADSVKGRFTISRDNAKNTVYLQMNSLKPEDTAVYYCAATAAALDGNTIMYYWGQGTQVTVSS | low polyreactivity
38 | QVQLVESGGGLVQAGGSLRLSCAASGRTFPVYAMGWYRQAPGKERELVATIRRRDGSTYADSVKGRFTISRDNAKNTVYLQMNSLKPEDTAVYYCNAAYRQATPWYYAWYDYWGQVTQVTVSS | high polyreactivity
39 | QVQLVESGGGLVQAGGSLRLSCAASGRNFGLNAMGWYRQAPGKERELVAAIDQGDGITYYADSVKGRFTISRDNAKNTVYLQMNSLKTEDTAVYYCAAEVSYKEIYQYYWIYPAYNYWGQGTQVTVSS | high polyreactivity
40 | QVQLVESGGGLVQAGGSLRLSCAASGRTFQYNTMGWYRQAPGKERELVAAISWSGGRTYYADSVKGRFTISRDNAKNTVYLQMNSLKPEDTAVYYCAADGTPEIRDNYWGQGTQVTVSS | high polyreactivity
41 | QVQLVESGGGLVQAGGSLRISCAASGRIFSGNAMGWYRQAPGKERELVAAISSGGSTYYADSVKGRFTISRYNAMNTVFLQMNILKPEDTAVYYCKKSRGRKWRGNYSVVKLLMGYWGQGSQVTVSS | low polyreactivity
42 | QVQLEESGGGLVQAGGSLRLSCAASGSTFTFNAMGWYRQAPGKERELVAVISSGGSTYYAESVKGRFTISRDNAKNTFYLQMNSLKPEDTAVYYCNKVYGYFGQYYLRYNYWGQGTQVTVSS | low polyreactivity
43 | QVQLVESGGGLVQAGGSLRLSCAASGTYFGYAMGWYRQAPGKETELVAAITSGGSTYYADSVKGRFTISRDNAKNTVYLQMNSLKPEDTADYYCARVYSRWSYRYDYWGQGSQVTVSS | low polyreactivity
